Results reported in publication PMC11643816, “Determination of Lactoferrin Using High-Frequency Piezoelectric Quartz Aptamer Biosensor Based on Molecular Bond Rupture”.

Columns and labels:
alpha-lactalbumin = molecular target: T1, alpha-lactalbumin (UniProt P00711); experiment: QCM bond rupture sandwich; conditions: 100 ng/mL; sandwich with aptamer II beads; 5'-SH-(CH2)6; 30 °C, 70 min per binding step; aptamer I 3 μmol/L on gold with MCH block; aptamer II beads stored in 10 mmol/L PBS; binding buffer, salt and pH not stated
T1 sequence: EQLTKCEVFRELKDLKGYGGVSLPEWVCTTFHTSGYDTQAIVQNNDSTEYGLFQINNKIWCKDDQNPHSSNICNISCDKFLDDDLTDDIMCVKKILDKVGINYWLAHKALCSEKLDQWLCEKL

lactoferrin (LF) [1] = molecular target: T2, lactoferrin (LF) (UniProt P24627 20-708); experiment: QCM bond rupture sandwich; cyclic voltammetry; aptamer I on gold, 100 ng/mL LF; 30 °C, 70 min per binding step; aptamer I 3 μmol/L on gold with MCH block; aptamer II beads stored in 10 mmol/L PBS; binding buffer, salt and pH not stated; conditions: protein: commercial
lactoferrin (LF) [2] = molecular target: T2, lactoferrin (LF); experiment: QCM bond rupture sandwich; cyclic voltammetry; aptamer II on magnetic beads, LF captured by aptamer I; 1180 Hz shift at 100 ng/mL LF; 30 °C, 70 min per binding step; aptamer I 3 μmol/L on gold with MCH block; aptamer II beads stored in 10 mmol/L PBS; binding buffer, salt and pH not stated; conditions: protein: commercial

T2 sequence (P24627 20-708): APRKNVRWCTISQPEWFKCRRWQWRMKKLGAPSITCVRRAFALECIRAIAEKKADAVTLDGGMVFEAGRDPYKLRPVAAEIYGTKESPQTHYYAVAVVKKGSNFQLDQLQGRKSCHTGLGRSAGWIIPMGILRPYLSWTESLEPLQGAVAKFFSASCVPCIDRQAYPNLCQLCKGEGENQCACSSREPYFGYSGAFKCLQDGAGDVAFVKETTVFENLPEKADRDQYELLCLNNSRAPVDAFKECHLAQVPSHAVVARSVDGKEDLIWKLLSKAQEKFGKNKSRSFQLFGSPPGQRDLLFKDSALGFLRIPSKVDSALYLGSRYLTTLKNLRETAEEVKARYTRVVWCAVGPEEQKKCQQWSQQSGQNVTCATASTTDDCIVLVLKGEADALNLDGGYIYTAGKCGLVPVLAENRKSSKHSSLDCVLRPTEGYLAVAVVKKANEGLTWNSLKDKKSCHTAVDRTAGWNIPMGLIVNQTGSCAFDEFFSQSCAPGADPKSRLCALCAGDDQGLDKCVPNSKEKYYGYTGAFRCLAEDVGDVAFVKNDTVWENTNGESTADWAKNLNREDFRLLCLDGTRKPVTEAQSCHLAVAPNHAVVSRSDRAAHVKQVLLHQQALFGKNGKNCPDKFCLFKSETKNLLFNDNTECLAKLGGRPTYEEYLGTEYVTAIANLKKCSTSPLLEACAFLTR

Q: For “TGGTGCTGCCCCTAGTCTCCGGCTGCTTCTTGG [aptamer I]”, which binding signal (% of LF signal) (alpha-lactalbumin) is on record?
A: 8.39

Q: Does TGGTGCTGCCCCTAGTCTCCGGCTGCTTCTTGG (ssDNA, 5'-SH-(CH2)6) [aptamer I] bind (lactoferrin (LF) [1])?
A: binds

Q: Does AGGCAGGACACCGTAACCGGTGCATCTATGGCTACTAGCTTTTCCTGCCT (ssDNA, 5'-SH-(CH2)6 as printed) [aptamer II] bind (lactoferrin (LF) [2])?
A: binds
